The values that follow come from IntAct's records for PubMed 31515488.

B1: Cyclin-D1-binding protein 1 (Homo sapiens), O95273 (parent)
chain: MASATAPAAAVPTLASPLEQLRHLAEELRLLLPRVRVGEAQETTEEFNREMFWRRLNEAAVTVSREATTLTIVFSQLPLPSPQETQKFCEQVHAAIKAFIAVYYLLPKDQGITLRKLVRGATLDIVDGMAQLMEVLSVTPTQSPENNDLISYNSVWVACQQMPQIPRDNKAAALLMLTKNVDFVKDAHEEMEQAVEECDPYSGLLNDTEENNSDNHNHEDDVLGFPSNQDLYWSEDDQELIIPCLALVRASKACLKKIRMLVAENGKKDQVAQLDDIVDISDEISPSVDDLALSIYPPMCHLTVRINSAKLVSVLKKALEITKASHVTPQPEDSWIPLLINAIDHCMNRIKELTQSELEL
partner: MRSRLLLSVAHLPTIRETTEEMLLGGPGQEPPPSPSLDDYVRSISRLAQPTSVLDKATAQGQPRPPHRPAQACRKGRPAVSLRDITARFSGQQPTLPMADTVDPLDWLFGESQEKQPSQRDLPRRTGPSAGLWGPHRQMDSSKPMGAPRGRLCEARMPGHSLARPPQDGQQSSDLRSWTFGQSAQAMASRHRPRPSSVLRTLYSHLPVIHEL
B2: Isoform 1 of Ras association domain-containing protein 2 (Homo sapiens), P50749-1 (parent)
chain: MDYSHQTSLVPCGQDKYISKNELLLHLKTYNLYYEGQNLQLRHREEEDEFIVEGLLNISWGLRRPIRLQMQDDNERIRPPPSSSSWHSGCNLGAQGTTLKPLTVPKVQISEVDAPPEGDQMPSSTDSRGLKPLQEDTPQLMRTRSDVGVRRRGNVRTPSDQRRIRRHRFSINGHFYNHKTSVFTPAYGSVTNVRINSTMTTPQVLKLLLNKFKIENSAEEFALYVVHTSGEKQKLKATDYPLIARILQGPCEQISKVFLMEKDQVEEVTYDVAQYIKFEMPVLKSFIQKLQEEEDREVKKLMRKYTVLRLMIRQRLEEIAETPATI
partner: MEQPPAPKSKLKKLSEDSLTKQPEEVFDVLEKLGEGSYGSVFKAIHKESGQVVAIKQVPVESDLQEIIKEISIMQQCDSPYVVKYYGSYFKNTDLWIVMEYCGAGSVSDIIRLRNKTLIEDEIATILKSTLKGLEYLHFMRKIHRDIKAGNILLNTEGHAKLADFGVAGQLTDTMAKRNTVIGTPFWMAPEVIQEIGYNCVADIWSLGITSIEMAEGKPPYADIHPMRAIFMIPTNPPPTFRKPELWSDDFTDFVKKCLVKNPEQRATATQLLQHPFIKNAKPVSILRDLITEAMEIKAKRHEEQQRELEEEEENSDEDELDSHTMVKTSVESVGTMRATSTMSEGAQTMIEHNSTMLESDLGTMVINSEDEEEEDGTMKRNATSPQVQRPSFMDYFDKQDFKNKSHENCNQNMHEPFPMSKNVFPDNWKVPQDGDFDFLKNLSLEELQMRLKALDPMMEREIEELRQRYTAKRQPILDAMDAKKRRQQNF
B3: Zinc finger protein Aiolos (Homo sapiens), Q9UKT9 (parent)
chain: MEDIQTNAELKSTQEQSVPAESAAVLNDYSLTKSHEMENVDSGEGPANEDEDIGDDSMKVKDEYSERDENVLKSEPMGNAEEPEIPYSYSREYNEYENIKLERHVVSFDSSRPTSGKMNCDVCGLSCISFNVLMVHKRSHTGERPFQCNQCGASFTQKGNLLRHIKLHTGEKPFKCHLCNYACQRRDALTGHLRTHSVEKPYKCEFCGRSYKQRSSLEEHKERCRTFLQSTDPGDTASAEARHIKAEMGSERALVLDRLASNVAKRKSSMPQKFIGEKRHCFDVNYNSSYMYEKESELIQTRMMDQAINNAISYLGAEALRPLVQTPPAPTSEMVPVISSMYPIALTRAEMSNGAPQELEKKSIHLPEKSVPSERGLSPNNSGHDSTDTDSNHEERQNHIYQQNHMVLSRARNGMPLLKEVPRSYELLKPPPICPRDSVKVINKEGEVMDVYRCDHCRVLFLDYVMFTIHMGCHGFRDPFECNMCGYRSHDRYEFSSHIARGEHRALLK
partner: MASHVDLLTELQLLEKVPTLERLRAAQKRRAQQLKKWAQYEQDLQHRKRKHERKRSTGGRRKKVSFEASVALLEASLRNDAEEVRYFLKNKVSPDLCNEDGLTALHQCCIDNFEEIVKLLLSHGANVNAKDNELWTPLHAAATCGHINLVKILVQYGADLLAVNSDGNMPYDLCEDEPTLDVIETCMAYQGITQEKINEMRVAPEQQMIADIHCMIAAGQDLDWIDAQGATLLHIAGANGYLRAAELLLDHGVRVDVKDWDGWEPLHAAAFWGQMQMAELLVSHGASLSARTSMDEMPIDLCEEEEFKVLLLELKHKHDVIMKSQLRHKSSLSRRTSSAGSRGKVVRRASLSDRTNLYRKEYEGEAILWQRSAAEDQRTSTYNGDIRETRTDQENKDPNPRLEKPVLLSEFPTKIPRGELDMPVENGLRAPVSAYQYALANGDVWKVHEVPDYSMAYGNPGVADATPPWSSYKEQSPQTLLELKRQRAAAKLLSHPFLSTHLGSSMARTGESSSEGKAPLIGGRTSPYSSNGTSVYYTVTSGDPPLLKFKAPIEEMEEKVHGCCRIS
B4: Leukocyte receptor cluster member 1 (Homo sapiens), Q96BZ8 (parent)
chain: MNILPKKSWHVRNKDNVARVRRDEAQAREEEKERERRVLLAQQEARTEFLRKKARHQNSLPELEAAEAGAPGSGPVDLFRELLEEGKGVIRGNKEYKEEKRQEKERQEKALGILTYLGQSAAEAQTQPPWYQLPPGRGGPPPGPAPDEKIKSRLDPLREMQKHLGKKRQHGGDEGSRSRKEKEGSEKQRPKEPPSLDQLRAERLRREAAERSRAEALLARVQGRALQEGQPEEDETDDRRRRYNSQFNPQLARRPRQQDPHLTH
B5: Protein boule-like (Homo sapiens), Q8N9W6 (parent)
chain: MQTDSLSPSPNPVSPVPLNNPTSAPRYGTVIPNRIFVGGIDFKTNESDLRKFFSQYGSVKEVKIVNDRAGVSKGYGFVTFETQEDAQKILQEAEKLNYKDKKLNIGPAIRKQQVGIPRSSIMPAAGTMYLTTSTGYPYTYHNGVAYFHTPEVTSVPPPWPSRSVCSSPVMVAQPIYQQPAYHYQATTQYLPGQWQWSVPQPSASSAPFLYLQPSEVIYQPVEIAQDGGCVPPPLSLMETSVPEPYSDHGVQATYHQVYAPSAITMPAPVMQPEPIKTVWSIHY
partner: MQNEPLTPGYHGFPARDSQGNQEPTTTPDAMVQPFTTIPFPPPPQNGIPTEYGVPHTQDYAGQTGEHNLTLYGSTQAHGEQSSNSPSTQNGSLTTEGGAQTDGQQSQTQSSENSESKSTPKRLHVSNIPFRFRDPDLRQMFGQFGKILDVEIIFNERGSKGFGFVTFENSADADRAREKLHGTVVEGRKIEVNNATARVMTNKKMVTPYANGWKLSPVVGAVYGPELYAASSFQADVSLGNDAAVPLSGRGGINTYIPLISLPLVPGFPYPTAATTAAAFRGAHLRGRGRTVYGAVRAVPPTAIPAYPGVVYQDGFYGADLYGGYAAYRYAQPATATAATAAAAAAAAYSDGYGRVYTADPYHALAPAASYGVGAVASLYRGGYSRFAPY

In the first experiment the parent is B1. As to conditions: with depp1_human DEPP1, Q9NTK1.
Consider I277T, for which the “effect of a mutation on the interaction” value was “disrupting interaction strength”.

In another experiment the parent is B2. The following applies: with stk3_human STK3, Q13188.
As for R144H, the “effect of a mutation on the interaction” value is “with no effect”.

Another experiment covers variants of B3. The following applies: with pp16b_human PPP1R16B.
A24V: the “effect of a mutation on the interaction” value was “with no effect”.

Turning to N119D, the “effect of a mutation on the interaction” value is recorded as “with no effect”.

The variants in a further experiment derive from B4. As to conditions: with cep70_human CEP70, Q8NHQ1.
Sequence of cep70_human CEP70, Q8NHQ1 (Q8NHQ1 whole entry): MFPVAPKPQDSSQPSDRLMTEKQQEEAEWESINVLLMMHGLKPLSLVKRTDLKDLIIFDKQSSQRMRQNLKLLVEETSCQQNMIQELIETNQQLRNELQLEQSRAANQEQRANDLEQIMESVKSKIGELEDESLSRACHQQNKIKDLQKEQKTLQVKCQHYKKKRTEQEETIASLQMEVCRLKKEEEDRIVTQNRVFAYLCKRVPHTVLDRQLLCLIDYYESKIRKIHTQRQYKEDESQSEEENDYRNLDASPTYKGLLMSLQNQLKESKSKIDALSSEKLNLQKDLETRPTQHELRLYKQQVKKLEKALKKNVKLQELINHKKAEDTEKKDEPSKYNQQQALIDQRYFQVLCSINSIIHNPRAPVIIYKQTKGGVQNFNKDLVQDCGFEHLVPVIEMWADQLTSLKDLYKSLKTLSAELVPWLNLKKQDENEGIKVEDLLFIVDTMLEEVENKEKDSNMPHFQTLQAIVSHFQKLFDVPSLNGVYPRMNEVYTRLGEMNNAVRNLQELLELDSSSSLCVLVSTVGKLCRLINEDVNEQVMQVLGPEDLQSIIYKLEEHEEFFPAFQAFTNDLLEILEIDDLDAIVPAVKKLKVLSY
Turning to K97Q, the “effect of a mutation on the interaction” value is reported as “with no effect”.

The next experiment covers variants of B4. As to conditions: with trim1_human MID2, Q9UJV3.
Sequence of trim1_human MID2, Q9UJV3 (Q9UJV3 whole entry): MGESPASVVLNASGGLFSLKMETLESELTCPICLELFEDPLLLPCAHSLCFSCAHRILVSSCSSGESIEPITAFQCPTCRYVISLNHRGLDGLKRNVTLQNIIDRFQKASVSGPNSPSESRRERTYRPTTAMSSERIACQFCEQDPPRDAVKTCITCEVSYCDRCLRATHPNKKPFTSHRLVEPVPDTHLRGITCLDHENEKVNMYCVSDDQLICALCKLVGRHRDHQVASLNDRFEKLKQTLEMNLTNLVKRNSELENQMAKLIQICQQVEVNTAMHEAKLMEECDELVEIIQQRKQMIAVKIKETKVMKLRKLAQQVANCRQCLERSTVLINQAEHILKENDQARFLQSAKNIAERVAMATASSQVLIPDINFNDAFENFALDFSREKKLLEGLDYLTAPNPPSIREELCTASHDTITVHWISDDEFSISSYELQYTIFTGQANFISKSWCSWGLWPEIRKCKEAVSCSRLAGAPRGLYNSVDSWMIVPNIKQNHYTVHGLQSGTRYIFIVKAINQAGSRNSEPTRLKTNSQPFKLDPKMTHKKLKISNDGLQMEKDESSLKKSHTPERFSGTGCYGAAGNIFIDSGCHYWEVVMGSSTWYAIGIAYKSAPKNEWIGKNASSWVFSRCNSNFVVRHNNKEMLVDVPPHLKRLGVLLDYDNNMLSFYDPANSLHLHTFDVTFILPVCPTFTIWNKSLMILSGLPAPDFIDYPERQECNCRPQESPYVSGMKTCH
Regarding K97Q, the “effect of a mutation on the interaction” value was “with no effect”.

Variants of B4 are the subject of the next experiment. As to conditions: with rop1a_human ROPN1, Q9HAT0.
Sequence of rop1a_human ROPN1, Q9HAT0 (Q9HAT0 whole entry): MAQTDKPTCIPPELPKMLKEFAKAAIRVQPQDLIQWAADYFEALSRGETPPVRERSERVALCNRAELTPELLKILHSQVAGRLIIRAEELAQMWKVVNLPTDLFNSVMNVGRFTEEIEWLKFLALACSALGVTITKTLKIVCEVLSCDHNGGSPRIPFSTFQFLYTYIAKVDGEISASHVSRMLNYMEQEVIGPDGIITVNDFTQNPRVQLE
With K97Q, the “effect of a mutation on the interaction” value was “with no effect”.

In another experiment the parent is B4. The following applies: with ldoc1_human LDOC1, O95751.
Sequence of ldoc1_human LDOC1, O95751 (O95751 whole entry): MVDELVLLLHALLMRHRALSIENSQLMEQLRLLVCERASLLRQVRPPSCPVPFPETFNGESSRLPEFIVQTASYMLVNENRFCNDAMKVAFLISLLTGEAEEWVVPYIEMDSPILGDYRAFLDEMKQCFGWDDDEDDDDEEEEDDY
Take K97Q: the “effect of a mutation on the interaction” value is listed as “with no effect”.

The variants in the next experiment derive from B4. As to conditions: with cc136_human CCDC136, Q96JN2.
Sequence of cc136_human CCDC136, Q96JN2 (Q96JN2 whole entry): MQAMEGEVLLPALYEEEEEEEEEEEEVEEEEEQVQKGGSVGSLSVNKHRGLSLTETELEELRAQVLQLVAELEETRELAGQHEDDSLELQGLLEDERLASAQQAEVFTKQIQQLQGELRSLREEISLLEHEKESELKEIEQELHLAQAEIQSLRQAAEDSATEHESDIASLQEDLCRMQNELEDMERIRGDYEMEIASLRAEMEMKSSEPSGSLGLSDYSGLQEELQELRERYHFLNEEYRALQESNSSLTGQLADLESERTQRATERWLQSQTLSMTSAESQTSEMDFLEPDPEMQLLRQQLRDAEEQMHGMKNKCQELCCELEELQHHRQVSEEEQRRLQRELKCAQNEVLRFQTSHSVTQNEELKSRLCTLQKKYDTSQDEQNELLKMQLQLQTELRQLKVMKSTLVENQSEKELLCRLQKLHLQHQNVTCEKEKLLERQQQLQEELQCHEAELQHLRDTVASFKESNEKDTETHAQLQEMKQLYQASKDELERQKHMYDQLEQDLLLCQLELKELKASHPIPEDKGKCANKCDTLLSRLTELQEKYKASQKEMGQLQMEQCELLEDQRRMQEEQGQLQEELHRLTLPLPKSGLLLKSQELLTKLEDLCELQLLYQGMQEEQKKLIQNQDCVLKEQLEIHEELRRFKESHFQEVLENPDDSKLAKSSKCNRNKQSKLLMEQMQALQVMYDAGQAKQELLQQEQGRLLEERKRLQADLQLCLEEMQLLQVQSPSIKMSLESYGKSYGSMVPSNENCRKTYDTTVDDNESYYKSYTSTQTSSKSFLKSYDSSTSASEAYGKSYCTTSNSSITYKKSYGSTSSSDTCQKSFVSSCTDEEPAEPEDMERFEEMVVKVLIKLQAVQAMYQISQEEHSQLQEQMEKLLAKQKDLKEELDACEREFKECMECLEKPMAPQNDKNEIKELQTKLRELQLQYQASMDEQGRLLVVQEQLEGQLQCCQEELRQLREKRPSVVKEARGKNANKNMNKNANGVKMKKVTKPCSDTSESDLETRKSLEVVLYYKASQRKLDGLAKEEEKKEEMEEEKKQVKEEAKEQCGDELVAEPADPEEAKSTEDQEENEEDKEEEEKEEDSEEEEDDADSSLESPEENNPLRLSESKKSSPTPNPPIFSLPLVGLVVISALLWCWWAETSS
With R256C, the “effect of a mutation on the interaction” value is reported as “disrupting interaction strength”.

In a further experiment the parent is B5. The following applies: with rfox2_human RBFOX2, O43251.
Take S9Y: the “effect of a mutation on the interaction” value is listed as “with no effect”.

Turning to M270I, the “effect of a mutation on the interaction” value is reported as “with no effect”.

For V78I, the “effect of a mutation on the interaction” value is on record as “with no effect”.
